The chains are these.
T1: OsMYB80 (rice, UniProt Q7XQN1 1-372)
T1 sequence: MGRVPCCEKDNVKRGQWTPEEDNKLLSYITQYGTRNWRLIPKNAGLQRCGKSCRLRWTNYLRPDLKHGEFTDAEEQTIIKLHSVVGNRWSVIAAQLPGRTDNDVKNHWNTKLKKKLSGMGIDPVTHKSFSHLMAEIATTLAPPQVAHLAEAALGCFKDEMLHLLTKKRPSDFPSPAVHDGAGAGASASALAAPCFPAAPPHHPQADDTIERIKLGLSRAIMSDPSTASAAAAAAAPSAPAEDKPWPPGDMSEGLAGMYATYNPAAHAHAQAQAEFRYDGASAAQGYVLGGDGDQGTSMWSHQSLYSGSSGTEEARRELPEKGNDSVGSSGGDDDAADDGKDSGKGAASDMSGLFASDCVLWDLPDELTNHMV

B1: LOC_Os06g11135 promoter probe (dsDNA)
DNA 1: TCTACCCTCACCAACCACGCTCCCA
DNA 2: TGGGAGCGTGGTTGGTGAGGGTAGA
B2: LOC_Os08g20200 promoter probe (dsDNA)
DNA 1: TAAGCCAGCTACAACTGACCAACTC
DNA 2: GAGTTGGTCAGTTGTAGCTGGCTTA
B3: LOC_Os01g04080 promoter probe (dsDNA)
DNA 1: CCAAATAAACGAGAAAACGGCAAAGGCATATGTCATTCAC
DNA 2: GTGAATGACATATGCCTTTGCCGTTTTCTCGTTTATTTGG
B4: LOC_Os09g36730 promoter probe (dsDNA)
DNA 1: ACCTCACTTTACACCTACCTTGAAGGTT
DNA 2: AACCTTCAAGGTAGGTGTAAAGTGAGGT
B5: LOC_Os03g35920 promoter probe (dsDNA)
DNA 1: GATCTGCATTTGTTAGTTCACCAGCAC
DNA 2: GTGCTGGTGAACTAACAAATGCAGATC
B6: OsMYB80 promoter OsMYB80-2 probe (dsDNA)
DNA 1: ACTCATAGCCTGCTATGTTCACAAGGTTTTATATTACTGA
DNA 2: TCAGTAATATAAAACCTTGTGAACATAGCAGGCTATGAGT
B7: LOC_Os07g40830 promoter probe (dsDNA)
DNA 1: CACGCATTCAGGAAACCAGAAGGATC
DNA 2: GATCCTTCTGGTTTCCTGAATGCGTG
B8: LOC_Os01g27170 promoter probe (dsDNA)
DNA 1: CCATCAAAATATATTGACTGTTGGATTTAATG
DNA 2: CATTAAATCCAACAGTCAATATATTTTGATGG
B9: LOC_Os01g50750 promoter probe (dsDNA)
DNA 1: CACCTAAACAAAACCAAACACAAGC
DNA 2: GCTTGTGTTTGGTTTTGTTTAGGTG
B10: OsMYB80 promoter OsMYB80-1 probe (dsDNA)
DNA 1: TGAACCTAAGGCTGTAAATTTGTTCGGACAAAGGATCATT
DNA 2: AATGATCCTTTGTCCGAACAAATTTACAGCCTTAGGTTCA
B11: LOC_Os08g38810 promoter probe (dsDNA)
DNA 1: CCTGGTCAGTCCTGTTGCACGGCTATATG
DNA 2: CATATAGCCGTGCAACAGGACTGACCAGG
B12: LOC_Os04g51990 promoter probe (dsDNA)
DNA 1: CTGCAGGAAATGGAAAACCATCTTATAGAAG
DNA 2: CTTCTATAAGATGGTTTTCCATTTCCTGCAG

In this data set the target is T1, OsMYB80. Briefly: EMSA.
Take B1: the binding result is reported as “binds”.
The result for B2 reads “binds”.
The result for B3 reads “binds”.
With B4, the binding result is recorded as “binds”.
With B5 the entry was “binds”; with B6, “binds”.
The result for B7 reads “binds”.
With B8 the entry was “binds”; with B9, “binds”; with B10, “binds”.
For B11, the binding result was “binds”.
With B12 the entry was “binds”.

For the origin of these results see paper PMC7217667.
